From article PMC7145394, “Molecular and Low-Resolution Structural Characterization of the Na^+-Translocating Glutaconyl-CoA Decarboxylase From Clostridium symbiosum” (Frontiers in Microbiology, 2020)
Where “and” joins values, the source holds several entries; their conditions need not be identical. Equal values may be shown once.

B1: GcdC1, biotin carrier subunit of glutaconyl-CoA decarboxylase (Gcd) from Clostridium symbiosum (natural protein, UniProt B7TVP4 1-149, looked up)
chain: MKYIATINGKRYEVEVERVEGYKSLDRNGVAAPKAPALASTAPVQRPAAPAPAAPAPAAAPAPAAAPAPVAAPAPAAAGATTVEAPMPGKVLDVKVTAGQVVKYGDVVAIMEAMKMETEIVAPADGTVSQILVKAGDPVDTGAAMVVLN
modifications: biotin covalently bound (C-terminal region)
notes: GcdC1, biotin carrier subunit of glutaconyl-CoA decarboxylase, Clostridium symbiosum, 15 kDa; N-terminal region of 30 amino acids, AP region of 48, C-terminal region of 71; Surmised: its biotin is what the monomeric avidin column holds
B2: GcdC2, biotin carrier subunit of glutaconyl-CoA decarboxylase (Gcd) from Clostridium symbiosum (natural protein, UniProt B7TVP3 1-139, looked up)
chain: MKYTATLNGKQYDVELERIGEYEPIPRYGEAAPAPAAPITAPAAAPAPVAAAPAPAPAPAAPAPAPAAGGTTVEAPMPGKVLDVKVAAGQAVKFGQVVITMEAMKMETEIVAPADGTVAQILVKAGDAVETGTAMVVLN
modifications: biotin covalently bound (C-terminal region)
notes: GcdC2, biotin carrier subunit of glutaconyl-CoA decarboxylase, Clostridium symbiosum, 14 kDa; N-terminal region of 30 amino acids, AP region of 39, C-terminal region of 70; Surmised: its biotin is what the monomeric avidin column holds
B3: GcdA, subunit of glutaconyl-CoA decarboxylase (Gcd) from Clostridium symbiosum (enzyme, UniProt B7TVP1 1-588, looked up)
chain: MNMYSMPGYFQNMPTIGKELVNPNPENEQEIKAVESDIHESIKKALDAGITSEEKLNERGQLSAMQRINALIDPGTWCPLNSLFNPENNKFGTTNIVNGLGRVDGKWVYIVASDNKKMAGAWVPGQAENLIRCSDAAKMMHLPLIYLLNCSGVEFPNQDKVYPNRRGGGTPFFRNSELNQLGIPVIVGIYGTNPAGGGYHSISPTILIAHQDANMAVGGAGILSGMNPKGYIDDEAAEQIIAAQIENSKLKVPAPGSVPIHYDETGFFREVYQNDLGVIDGIKKYISYLPAYNLEFFRVDTPKAPQLPAEDLYSIIPMNQKRPYDIYEVIARLFDNSEFSEYKKGYGPEMVTGLAKVNGLLVGVIANVQGLLMNYPEYKQNSVGIGGKLYRQGLIKMNEFVTLCARDRIPLIWLQDTTGIDVGDEAEKAELLGLGQSLIYSIENSKLPSLEITIRKASAAAHYVLGGPQGNNTNVFSIGTGACEYYVMPGETAANAMYSRKLVKAKKAGEDLQPIIGKMNDMIQMYTDKSRPKYCTEKGMVDEIVDMTEVRPYIQAFTEAAYQNPQSICPMHQMLTPRSTREFETFGK
notes: GcdA, hydrophilic carboxyltransferase subunit of glutaconyl-CoA decarboxylase, Clostridium symbiosum, 65 kDa; For LILBID-MS (soft mode) and EM the complex was cross-linked with glutaraldehyde (GraFix)
B4: GcdD, small subunit of glutaconyl-CoA decarboxylase (Gcd) from Clostridium symbiosum (natural protein, UniProt B7TVP2 1-95, looked up)
chain: MWTEATMPFGQSVIVSLLGISVVFITLVTLALAIVLISKILRSIIKDGAQKPAPAAAPVVSDEADKETLAVLMATIGMDLELPADQFKIVNVKEL
notes: GcdD, small subunit of glutaconyl-CoA decarboxylase, Clostridium symbiosum, 10 kDa; N-terminal transmembrane helix (13-37), AP-rich region (51-60), C-terminal region (61-95)
B5: GcdB, subunit of glutaconyl-CoA decarboxylase (Gcd) from Clostridium symbiosum (enzyme, UniProt B7TVP5 1-379, looked up)
chain: MNFFEIMGEMLAQSGFTALTWKNLVMFAISFVLLYMAIKKQYEPLLLLPIAFGMFLANLPLADLMKESEPWYTQGVLRIMYGGVKSSLFPCLIFLCVGAMTDFGPLIANPISLLLGAAAQFGIYIAFMLANATGLFTVGEAAAIGIIGGADGPTAIYIANNLAPDLVAPIAVAAYSYMALIPMIQPPIMKLLTTKKERAIVMKQLRKVSKVEKVVFPVFVVLFCSLLLPSVAPLLGMLMLGNLFRESGVVERLSDTAQNALCNIVTIMLGTTVGATANGDIFLRVQTIAIIAMGLMAFCFSTVGGVLLGKLLCVVTGGKINPLIGSAGVSAVPMAARVSQTVGSKENPTNFLLMHAMGPNVAGVIGSAVAAGFFMLIFK
notes: GcdB, membrane-spanning subunit (11 putative transmembrane helices) of glutaconyl-CoA decarboxylase, Clostridium symbiosum, 35 kDa (39 kDa in the introduction)

How the values were obtained:
[1] = target: T1, Gcd (glutaconyl-CoA decarboxylase) from Clostridium symbiosum ([Clostridium] symbiosum, UniProt B7TVP1); assay: coupled spectrophotometric assay of crotonyl-CoA formation, […] nm; type: biochemical; conditions: decarboxylation to crotonyl-CoA; biotin-dependent, biotin covalently bound to GcdC1/GcdC2; DDM-solubilized enzyme
T1 construct: gene gcdA

[2] = target: B3; assay: affinity purification with mass spectrometry; Gcd solubilized from C. symbiosum membranes with 2% DDM in buffer A (50 mM phosphate pH 7.0, 400 mM NaCl, 0.05% DDM), loaded on monomeric avidin agarose, eluted with a biotin step gradient (0-2 mM); bands of SDS-PAGE identified by MALDI-TOF MS; conditions: partners not purified
[3] = target: B1; assay: native MS; LILBID-MS, soft detection mode (14 mJ laser power); 3-7 uM glutaraldehyde-fixed and unconcentrated Gcd complex in 50 mM Tris-HCl pH 7.0, 0.05% DDM, 200 mM NaCl; conditions: both partners purified
[4] = target: B3; assay: as above; conditions: both partners purified
[5] = target: the molecule itself; assay: as above
[6] = target: the molecule itself; assay: negative-stain electron microscopy, 3D reconstruction; glutaraldehyde-fixed Gcd (50-80 nM) at 200 mM NaCl, stained with 2% uranyl formate; 2D classification and low-resolution 3D map (cisTEM, RELION-3.0)
[7] = target: B2; assay: native MS; LILBID-MS, soft detection mode (14 mJ laser power); 3-7 uM glutaraldehyde-fixed and unconcentrated Gcd complex in 50 mM Tris-HCl pH 7.0, 0.05% DDM, 200 mM NaCl; conditions: both partners purified
[8] = target: B1; assay: affinity purification with mass spectrometry; Gcd solubilized from C. symbiosum membranes with 2% DDM in buffer A (50 mM phosphate pH 7.0, 400 mM NaCl, 0.05% DDM), loaded on monomeric avidin agarose, eluted with a biotin step gradient (0-2 mM); bands of SDS-PAGE identified by MALDI-TOF MS; conditions: partners not purified

For `CC(C)(COP(=O)(O)OP(=O)(O)OC[C@H]1O[C@@H](n2cnc3c(N)ncnc32)[C@H](O)[C@@H]1OP(=O)(O)O)[C@@H](O)C(=O)NCCC(=O)NCCSC(=O)/C=C/CC(=O)O` [glutaconyl-CoA], the “coupled spectrophotometric assay of crotonyl-CoA formation, 340 nm” value [1] was “Purified Gcd was enzymatically active with respect to crotonyl-CoA formation”.

B1: binds [2].

B2: binds [3]; binds [4].

B3 was tested, and the “stoichiometry N” value [5] was 4 and 2 and the “stoichiometry N” value [6] was ~4.

B4: binds [7]; binds [8].

With B5 the “stoichiometry N” value [6] was 2.
